Results reported in paper PMC5001929 (Cell reports, 2016).
Each block holds one binder with its values, some of them ahead of it.

Target: T1, Gremlin-2 (UniProt O88273 22-168)
T1 sequence: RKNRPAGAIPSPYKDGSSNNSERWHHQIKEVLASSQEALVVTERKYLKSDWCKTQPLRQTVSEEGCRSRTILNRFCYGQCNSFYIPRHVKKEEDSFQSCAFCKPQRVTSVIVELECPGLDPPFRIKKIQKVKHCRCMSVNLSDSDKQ
Assay: SPR

- Kd: 146 nM
B1: GDF5 (ligand, UniProt P43026 382-501, looked up)
chain: APLATRQGKRPSKNLKARCSRKALHVNFKDMGWDDWIIAPLEYEAFHCEGLCEFPLRSHLEPTNHAVIQTLMNSMDPESTPPTCCVPTRLSPISILFIDSANNVVYKQYEDMVVESCGCR

- Kd: 9 nM
B2: BMP2 (ligand, UniProt P12643 283-396, looked up)
chain: QAKHKQRKRLKSSCKRHPLYVDFSDVGWNDWIVAPPGYHAFYCHGECPFPLADHLNSTNHAIVQTLVNSVNSKIPKACCVPTELSAISMLYLDENEKVVLKNYQDMVVEGCGCR
